In the DeepSol protein solubility set:

experiment: soluble on expression in E. coli; label from the status in PepcDB or PDB records

| Sequence | soluble on expression in E. coli |
| --- | --- |
| SDLMTPWPIIEKRIVAAASADFVTAIYNPKSEGRYWQLYRFVEIFMQYRSADTPVGLVRQAGREEEQVTVTTLGEFDPEVVDMFTVVLVGNSQSYCYEGHFITPRGYYPEEEIEAKGI | not soluble |
| SEAVRPDSCESGPAAPRAEERPAPEARVHFRVTRFIMEAGVKLGMQSIPIATACTIYHKFFCEINLDAYDLYLVAMSSIYLAGKVEEQHLRTRDIINVSHRYFNPGSEPLELDSRFWELRDSIVQCELLMLRVLRFQVSFQHPHKYLLHYLISLKNWLNRYSWQRTPISVTAWALLRDSYHGGLCLRFQAQHLAVAVLYLALQVYGVEVPAEGEAEKPWWQVFSDDLTKPIIDNIVSDLIQIYTMDTEIP | soluble |
| SEAWEYFHLAPARAGHHPNQYATCRLCGRQVSRGPGVNVGTTALWKHLKSMHREELEKSGHGQ | soluble |
| SEEITDGVNNMNLATDSQKKNRIQVSNTKKPLFFYVNLAKRYMQQYNDVELSALGMAIATVVTVTEILKNNGFAVEKKIMTSIVDIKDDARGRPVQKAKIEITLVKSEKFDELMAAANEEKEDAETQVQN | soluble |
| SEKLAASTEPQGPRPVLGRESVQVPDDQDFRSFRSECEAEVGWNLTYSRAGVSVWVQAVEMDRTLHKIKCRMECCDVPAETLYDVLHDIEYRKKWDSNVIETFDIARLTVNADVGYYSWRCPKPLKNRDVITLRSWLPMGADYIIMNYSVKHPKYPPRKDLVRAVSIQTGYLIQSTGPKSCVITYLAQVDPKGSLPKWVVNKSSQFLAPKAMKKMYKACLKYPEWKQKHLPHFKPWLHPEQSPLPSLALSELSVQHADSLENIDESAVAESREERMGGAGGEGSDDDTSLT | soluble |
| SELFTLGACRQVGKSCFVLKTSEGLVMLDCGLHPSYQDDRRYPNFSLAFSYGPLKAVFITHCHADHVGALPILTERWGYDGPIYMSEPTRKLSYYILEECVGSWGGDDEWTDSSRSEWSYTQREVESCLTKCIVGWLDMCWVLTCLASS | soluble |
| SESSGGPTSSLAGTSRNTHVEDDDVVFIESVQPPICAPAIPNERNFVFASSKHENPPGTDSTISPSWRDLTSQKGNLCETIVIDDEGDTDTNGGEEKNPTDFIEWGPNGNKSSTKNVDFPIASLSRSKTKTAVGPFNPGRIDVTDAFQNGRFAVHHNPDSWISQSASFPRNQKQQGVDSLSPVASLPKQIFQPSNQQPTKPVKVTCANCKKPLQKGQTAYQRKGSAHLFCSTTCLSSFSHKRTRKTRNVMCKK | soluble |
| SETQEGVSKQSIRERIWDYMESHDIADFPRPVHHRIPNFKGAAQAAGHLPHLQAFHVARTIKVNPDAPQRNARFLVLESKKTLLVPTPRLRTGLFNKITPPPGATKDILRKCATSQGVRNFSVPVGLDSSVLVDLVVVGSVAVSEKGKLETGCLDVPEGYPGHSPLACVHAESLTSAPVPLTLQAFCCSVSPHGRLSVIGMGGIESLSHLNQHSVERPLPGLCGGPLMVVVIPH | not soluble |
| SFDNSLSRELSRKQNENQMFVYSFEASASMLSSDTEYIQKNDIEKIIDSVKRSMGESQIGITIVNQKEKAIYTDSKIGKNIKIKDLKDNNFGYLIFKNNGSYYLETMSKMTIESGTYYISIVSSINEVYNDINEMMKN | not soluble |
| SFHGIPASGVMGGAPANKPELYEEVKLYKNAREREKYDNMAELFAVVKTLQALEKAYIKDCVTPNEYTGACSRLLVQYKAAFKQVQGSDVGSIDDFCRKYRLDCPLAMERIKEDRPITIKDDKGNLNRCIADIVSLFITVMDKLRLEIRAMDEIQPDLRELMETMNRMSNMPPDSEAKDKVSLWLTTLSSMSASDELDDSQVRQMLFDLESAYNAFNRFLHSS | soluble |
| SFKKFDEKENVSNCIQLKTSVIKGIKNQLLEQFPGIEPWLNQIMPKKDPVKIVRCHEHIEILTVNGELLFFRQREGPFYPTLRLLHKYPFILPHQQVDKGAIKFVLSGANIMCPGLTSPGAKLYPAAVDTIVAIMAEGKQHALCVGVMKMSAEDIEKVNKGIGIENIHYLNDGLWHMKTYK | soluble |
| SGELGEHRASLLSNPIPEVKTLGELKQGQNNGNLDLESEPFGSHWLQGSKATTGRTSEEPEEEIPPEEMAGEELPETSNLDGPLQQDLEVEVVEMSHLSITERTPSVSTAKGRKKRSRRLLELAKPKTNWQCLRDRPSVYWTERFIEDTTLTITVPVVSQRMEELSRPKRFYQEYYNNNRTTPIWSIPRSTLEYQASNRLKQLATPKVRNNIWSINMSEVSQVSRAAQMAVPTPRTLRLAKPRPPATLLEEWDPMPKPKPYVSDYNRLLQLATPKALSEKCVPDRSPQWEVLDVTKNAVASSRIISLAQPKIRKDLNEGYNPYYISPASLVAQASPRIYELATPKYITKKV | soluble |
| SGGRPIQFFRRLAIWKYMKDYFPVSLVKTAELDPSRNYIAGFHPHGVLAAGAFLNLCTESTGFTSLFPGIRSYLMMLTVWFRAPFFRDYIMSGGLVSSEKVSADHILSRKGGGNLLAIIVGGAQEALDARPGAYRLLLKNRKGFIRLALMHGAALVPIFSFGENNLFNQVENTPGTWLRWIQNRLQKIMGISLPLFHGRGVFQYSFGLMPFRQPITTIVGKPIEVQMTPQPSREEVDRLHQRYIKELCKLFEEHKLKFNVPEDQHLEFC | soluble |
| SGKQPVKLKAVVYALSPFQQKIMTGLWKDLPEKIHHKVSENWISATLLVTPVVGTYWYAQYFKEQEKLEHRF | soluble |
| SGQKVTGGIKTVDMRDPTYRPLKQELQGLDYCKPTRLDLLLDMPPVSYDVQLLHSWNNNDRSLNVFVKEDDKLIFHRHPVAQSTDAIRGKVGYTRGLHVWQITWAMRQRGTHAVVGVATADAPLHSVGYTTLVGNNHESWGWDLGRNRLYHDGKNQPSKTYPAFLEPDETFIVPDSFLVALDMDDGTLSFIVDGQYMGVAFRGLKGKKLYPVVSAVWGHCEIRMRYLNGLDPEPLPLMDLCRRSVRLALGRERLGEIHTLPLPASLKAYLLYQ | soluble |
| SGRKIGSIVMNANPFTLGHQYLIEQACEQCDWVHLFVVKAENKDFSYADRMAMIKAGSKHLLNLTIHSGSDYIISRATFPSYFIKDQQVVNQSHTALDLSIFRHSIAPALGITHRFVGSEPICTVTRHYNQAMRRWLEEAHDASAPIQVVEIERSQQASQPISASRVRYLLKQFGFAAIADLVPKTTYSYLCQHYAEH | not soluble |
| SGRPIEDVRDRQRLADATATVHETRLALHHGRGNIESDFRLSNGRSSTCSYLSYSFLSYWPGKHDINLMAGCALAVSAGNCDQNAAINTRRHAARMEGGGQITNVCDQACAHMYALYQPPGSAEAQDSAVVLDSWSDGPAVLLRDSRWAGTYHRTSTYPIERFDKPGAIDALARTRALQAEIEDPQTEFHAHLRGVESVVRTPPVPRKIYASTP | not soluble |
| SGTQALLVEERARLERLLGARLEAAADQALARLVEANPQPVHLICDLTHRLLACSPARAAQFGVPLGELLDRSLWPYCSEEILRQEATLEELGWRELLAPPALEFASGANASAIVPIRRSRCRWTRMTLSDGRAVRLVETL | not soluble |
| SHMEIVPDTSVVIDGRVSDQVKADADPDTDVDGMGFAGATVVVPEAVVGELEAQANDGRETGWEGLEELQTLVDLAEEGTIDVEYVGRRPDAIEKREAGEGQIDALIRDIAGDRDATLVTSDDVQAEVARAKGLAVEFVDPVKRTVDRLQIENFFDEG | not soluble |
| SHMTDDKKKGKFIVFEGLDRSGKSTQSKLLVEYLKNNNVEVKHLYFPNRETGIGQIISKYLKMENSMSNETIHLLFSANRWEHMNEIKSLLLKGIWVVCDRYAYSGVAYSSGALNLNKTWCMNPDQGLIKPDVVFYLNVPPNYAQNRSDYGEEIYEKVETQKKIYETYKHFAHEDYWINIDATRKIEDIHNDIVKEVTKIKVEPEEFNFLWS | soluble |
| SIEKIWAREILDSRGNPTVEVDLYTAKGLFRAAVPSGASTGIYEALELRDGDKQRYLGKGVLKAVDHINSTIAPALISSGLSVVEQEKLDNLMLELDGTENKSKFGANAILGVSLAVCKAGAAERELPLYRHIAQLAGNSDLILPVPAFNVINGGSHAGNKLAMQEFMILPVGAESFRDAMRLGAEVYHTLKGVIKDKYGKDATNVGDEGGFAPNILENSEALELVKEAIDKAGYTEKIVIGMDVAASEFYRDGKYDLDFKSPTDPSRYITGDQLGALYQDFVRDYPVVSIEDPFDQDDWAAWSKFTANVGIQIVGDDLTVTNPKRIERAVEEKACNCLLLKVNQIGSVTEAIQACKLAQENGWGVMVSHRSGETEDTFIADLVVGLCTGQIKTGAPCRSERLAKYNQLMRIEEELGDEARFAGHNFRNPSVLHHHHHH | soluble |
| SIGLFKVKEKQREQAQNATRGGASVKKQSAGELRLHKDISELNLPSSCSISFPNGKDDLMNFEVSIKPDDGYYHNGTFVSHSKSLLCIHMKLQKLNAKPRFIIPISIWKETFA | soluble |
| SIRLPAHLRLQPIYWSRDDVAQWLKWAENEFSLRPIDSNTFEMNGKALLLLTKEDFRYRSPHSGDELYELLQHILKQRDHHHHHHHRHD | soluble |
| SKIYDNKNQLIADLGSERRVNAQANDIPTDLVKAIVSIEDHRFFDHRGIDTIRILGAFLRNLQSNSLQGGSTLTQQLIKLTYFSTSTSDQTISRKAQEAWLAIQLEQKATKQEILTYYINKVYMSNGNYGMQTAAQNYYGKDLNNLSLPQLALLAGMPQAPNQYDPYSHP | not soluble |
| SKPSKPFNVDDVLKFTFTGEKHHHHHH | soluble |
| SKVFNLDRGNTLSVSLFSGVTNSKELLNSMLDGSLKLEVSFLNASLIPGIFPLLAAAQKALISKSRDSLSTRTLHSELVYNYSGSKHITESLKRCGISENTTYILAARFNASPVEMEEVAKLINGKEIDLEELKTHANQANILKHYKITSQELGISSLGDAIVCRIAARDAL | soluble |
| SLAEGLITGTVLTQFDQLYRKKPGMTMSCAKLPQNISKNRYRDISPYDATRVILKGNEDYINANYINMEIPSSSIINQYIACQGPLPHTCTDFWQMTWEQGSSMVVMLTTQVERGRVKCHQYWPEPTGSSSYGCYQVTCHSEEGNTAYIFRKMTLFNQEKNESRPLTQIQYIAWPDHGVPDDSSDFLDFVCHVRNKRAGKEEPVVVHCSAGIGRTGVLITMETAMCLIECNQPVYPLDIVRTMRDQRAMMIQTPSQYRFVCEAILKVYEEGFVKPLTTSTNK | not soluble |
| SLDFRDKVRNMDLQAGLYRHYKGQNYRVLGVARHSETEEALVIYQALYGEFGLWVRPLEMFTEAVEVDGEWVPRFVLVSPEADPLGLQKAPGGEDRA | soluble |
| SLDKIEHIGIAVKNLEAGNSLYEKLMGVPHYKIEEVASEGVRTSFFKTGPNKIELLEATNDDSAIAKFIEKKGEGIHHIAFAVENIVEEMERLKKEGFIILNEKPKKGADNKLVAFVHPKTAGGVLIELCQEINEG | soluble |
| SLELWLNKATDPSMSEQDWSAIQNFCEQVNTDPNGPTHAPWLLAHKIQSPQEKEALYALTVLEMCMNHCGEKFHSEVAKFRFLNELIKVLSPKYLGSWATGKVKGRVIEILFSWTVWFPEDIKIRDAYQMLKKQGIIKQDPKLPVDKI | soluble |
